Numbering of substitutions follows the chain as printed.
Tests used:
Assay in all cases: fluorescence anisotropy
A3F CTD = target: T1, A3F CTD (UniProt Q8IUX4); conditions: RT buffer: 50 mM Tris pH 7.4, 40 mM KCl, 10 mM MgCl2, 1 mM DTT; 10 nM F-labeled DNA; 21 C
T1 sequence: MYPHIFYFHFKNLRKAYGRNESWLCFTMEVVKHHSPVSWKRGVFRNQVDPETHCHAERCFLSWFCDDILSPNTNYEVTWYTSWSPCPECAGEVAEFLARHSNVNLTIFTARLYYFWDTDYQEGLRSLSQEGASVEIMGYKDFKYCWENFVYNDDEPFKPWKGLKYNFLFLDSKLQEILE

A3F = target: T2, A3F (UniProt Q8IUX4); conditions: apparent Kd; 10 mM Mg2+; RT buffer: 50 mM Tris pH 7.4, 40 mM KCl, 10 mM MgCl2, 1 mM DTT; 10 nM F-labeled DNA; 21 C
T2 sequence: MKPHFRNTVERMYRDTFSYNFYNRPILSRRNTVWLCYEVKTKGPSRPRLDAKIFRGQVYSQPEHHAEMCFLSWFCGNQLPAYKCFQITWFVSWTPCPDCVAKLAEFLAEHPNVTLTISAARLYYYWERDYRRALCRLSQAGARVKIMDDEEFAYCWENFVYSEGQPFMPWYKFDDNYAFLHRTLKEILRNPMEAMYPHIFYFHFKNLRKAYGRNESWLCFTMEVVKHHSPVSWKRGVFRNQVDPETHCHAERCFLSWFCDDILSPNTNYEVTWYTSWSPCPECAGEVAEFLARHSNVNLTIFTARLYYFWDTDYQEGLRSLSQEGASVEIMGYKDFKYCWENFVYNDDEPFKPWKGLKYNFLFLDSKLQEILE

A3F NGM P191G = target: T3, A3F NGM P191G (UniProt Q8IUX4); conditions: RT buffer: 50 mM Tris pH 7.4, 40 mM KCl, 10 mM MgCl2, 1 mM DTT; 10 nM F-labeled DNA; 21 C
T3 sequence: T2 sequence with P191G

GST-A3F = target: T4, GST-A3F (UniProt Q8IUX4); conditions: RT buffer: 50 mM Tris pH 7.4, 40 mM KCl, 10 mM MgCl2, 1 mM DTT; 10 nM F-labeled DNA; 21 C
T4 sequence: T2 sequence

GAATATAGTTTTTAGTTCAAAGTAAGTGAAGATAATTTAGAGAGTTGTAATGTGATATATGTGTATGAAAGATATAAGATTCAAAGAGTAAAGTTGTTAATGTGTGTAGATATGTTAA [A3F - 63 (TTC) (118 nt)]
Kd (A3F CTD): 288 nM | Kd (A3F): 20 nM | Kd (A3F NGM P191G): 119 nM | Kd (GST-A3F): 46 nM
